# Assay: yeast display, Sf9 membrane polyspecificity reagent, FACS + sequencing; frameworks hold sequencing errors
# Procedure, shortened: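 Synthetic nanobody libraries on Saccharomyces cerevisiae BJ5465 were galactose-induced for 36–48 hours, stained 1 hour at 4 °C with 10% biotinylated, detergent-solubilized Sf9 membrane reagent and enriched on streptavidin microbeads. FACS then separated cells into low and high (top ~1%) gates by anti-HA (expression) and streptavidin (reagent binding) fluorescence. Genes were colony-PCR amplified, MiSeq 2 × 250 sequenced and CDR-length filtered. A clone's polyreactivity label is that of its gate of origin.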
row,Sequence,polyreactivity (PSR sort gate)
1,QVQLVESGGGLVQAGGSLRLSCAASGFIFIKYAMRCYRQAPGKERELVAAISFRGGRTNYADSVKGRFTISRDNAKNTVYLQMNSLKPEDTAVYYCAAETRDYSEGYYWGQGTQVTVSS,high polyreactivity
2,QVQLVESGGGLVQAGGSLRLSCAASGFIFIPNTMGWYRQAPGKERELVASGSTYYADSVKGRFTISRDNAKNTVYLQLNSLKPEDTAVYYCAARYHRYSSEFDYWGQGTQVTVSS,low polyreactivity
3,QVQLVESGGGLVQAGGSLRLSCAASGFIFIQNDMGWYRQAPGKERAFFASISKDGGRTYYADSVKGRFTISRDNAKNTVYLQMNSLKPEDTAVYYCNTYPRGNWGNFVEQDYDYWGQGTQVTVSS,low polyreactivity
4,QVQLVESGGGLVQAGGSLRLSCAASGFIFISNAMGWYRQAPGKERELVARISDTDRTHYADSVKGRFTISRDNAKNTVYLQMNSLKPEDTAVYYCATDQSLLDKVYYDVQYDYWGQGTQVTVSS,low polyreactivity
5,QVQLVESGGGLVQAGGSLRLSCAASGFIFKGNAMGWSRQAPGKERELVAAISSRGGSTYYADSVKGRFTISRDNAKNTVYLQMNSLKPEDTAVYYCATRVYWRNDYWGQGTQVTVSS,high polyreactivity
6,QVQLVESGGGLVQAGGSLRLSCAASGFIFKINAMGWYRQAPGKERELVAAINWTGGNTYYADSVKGRFTISRDNAKNTVYLQMNSLKPEDTAVYYCAAEFDVGWTWDYYWGQGTQVTVSS,high polyreactivity
7,QVQLVESGGGLVQAGGSLRLSCAASGFIFKPNALGWYRQAPGKERELVAAITWGGDNTYYADSVKGRFTISRDNAKNTVYLQMNSLKPEDSAVYYCAAEWKFHSDASYIYDYWGQGTQVTVSS,high polyreactivity
8,QVQLVESGGGLVQAGGSLRLSCAASGFIFKSNAMGWDRQAPGKERELVAAISTSGGSTYYADSVKGRFTISRDNAKNTVYLQMNSLKPEDTAVYYCAKRPSRYYYRLDYWGQGTQVTVSS,high polyreactivity
9,QVQLVESGGGLVQAGGSLRLSCAASGFIFKSYAMGWYRPAPGKERELVAAISSGGTTNYADSVKGRFTISRDNANNTVYLQMNSLKPEDTAVYYCAAALHGHTFPFYYWGHGTQVTVSS,low polyreactivity
10,QVQLVESGGGLVQAGGSLRLSCAASGFIFKSYAMGWYRQAPGQERELVAAISRSGSSTYYADSVKGRFTISRDNAKNTVYLLMNSLKPEDTAVYYCAKKGYRFIHFGYDYWGQGTQVTVSS,high polyreactivity
11,QVQLVESGGGLVQAGGSLRLSCAASGFIFKSYTMGWYRQAPGKERELVAAITWSGDSTYADSVKGRFTISRDNAKNTVYLQMNSLKPEDTAVYYCAKNYAYLYYSWGQGTQVTVSS,low polyreactivity
12,QVQLVESGGGLVQAGGSLRLSCAASGFIFKYNVMGWYRQAPGKERELVAAIRGSGRTYYADSVKGRFTISRDNAKNTVYLQMNSLKPEDTAVYYCGADIQAYASRVYAGFDYWGQGTQVTVSS,low polyreactivity
13,QVQLVESGGGLVQAGGSLRLSCAASGFIFKYYAMGWYRHAPGKERELVAAISRRGGSTFYADSVKGRFTISRDNAKNTVYLQMNSLKPEDTAVYYCAKYPQTLPIDVWTWIHDYWGQGTQVTVSS,high polyreactivity
14,QVQLVESGGGLVQAGGSLRLSCAASGFIFLFNAMGWYRQAPGKERELVATNSSGGSTYYADSVKGRFTISLDNAKNTVYLQMTSLKPEDTAVYYCNAGPARTVYAQSSYVLYDYWGQGTQVTVSS,low polyreactivity
15,QVQLVESGGGLVQAGGSLRLSCAASGFIFLGNAMGWYRPAPGKERDLVAAISSGGSTYADSVKGRFTISRDNAKYTVYLQMNSLKPEDTAVYYCAVDRAFRAQNYHEYDYWGQGTQVTVSS,low polyreactivity
16,QVQLVESGGGLVQAGGSLRLSCAASGFIFLHYAMGWYRKAPGKERELVAGIDSSVDSTFYADSVKGRFTISRDNAKNTVYLQMNSLKPEDTAVYYCAKDPDLDYYLYYYWGQGTQVTVSS,low polyreactivity
17,QVQLVESGGGLVQAGGSLRLSCAASGFIFLLYAMGWYRQAPGKERELVAAIDTDTSTNYADSVKGRFTISRDNAKNTVYLQMNSLKPEDTAVYYCAREEPGVSLGVDYDYWGQGTQVTVSS,low polyreactivity
18,QVQLVESGGGLVQAGGSLRLSCAASGFIFLPYVMGWYRQAPGKERELVAAISGGGGITYYADSVKGRFTISRDNAKNTVYLQMNSLKPEDTAVYYCAADDLHWLNSKRYSGRDYWGQGTQVTVSS,low polyreactivity
19,QVQLVESGGGLVQAGGSLRLSCAASGFIFLWNAMAWYRQAPGKELDLVAAINRGTSTNYADSVKGRFTISRDNAKNTVYLQMNSLKPEDTAVYYCAVSVLPWQMYSESYAEYDYWGQGTQVTVSS,low polyreactivity
20,QVQLVESGGGLVQAGGSLRLSCAASGFIFLYAMGWYRQAPGKERELVAAISWSDTSTYYADSVKGRFTISRDNAKNTVYLQMNSLKPEDTAVYYCNAETWNYGDYDYWGQGTQVTVSS,high polyreactivity
21,QVQLVESGGGLVQAGGSLRLSCAASGFIFLYYAMGWYRQAPGKERELVAAITTRGGRTYYADSVKGRFTISRDNAKNTVYLQMNSLKPEDTAVYYCAVQVSWSYYRYGYWGQGTQVTVSS,low polyreactivity
22,QVQLVESGGGLVQAGGSLRLSCAASGFIFNAYAMGWYRQAPGKERELVAAITFRTTSTYYADSVKGRFTISRDNAKNTVYLQMNSLKPEDTAVYYCAALWIYSGWRYDYWGQGTQVTVSS,high polyreactivity

row,Sequence,polyreactivity (PSR sort gate)
1,QVQLVESGGGLVQAGGSLRLSCAASGFIFNINTMGWYRQAPGKERELVAAITLNGDGTYYADSVKGRFTISRDNAKNTVDIQMNSLNPADTAVDYCNAATWYYYYVSRETYYFDVDYWGQGTQVTVSS,low polyreactivity
2,QVQLVESGGGLVQAGGSLRLSCAASGFIFNLYAMGWYRQAPGKERELVATITNRGGITHYADSVKGRFTISRDNAKNTVYLQMNSLKPEDSAVYYCAVKVYRRSGGYEYWGQGTQVTVSS,low polyreactivity
3,QVQLVESGGGLVQAGGSLRLSCAASGFIFNNYAMGWSRQAPGKERELVAAITWSGGGTYYADSVKGRFTISRDNAKNTVYLQMNSLKPEDSAVYYCAVYYPAYLEEYWGQGTQVTVSS,high polyreactivity
4,QVQLVESGGGLVQAGGSLRLSCAASGFIFNNYGMGWSRQAPGKERELVATISRGASTNYADSVKGRFTISRDNAKNTVYLQMNSLKPEDTAVYYCAKDYGDWGQGTQVTVSS,low polyreactivity
5,QVQLVESGGGLVQAGGSLRLSCAASGFIFNRNAMGWYRQAPGKERELVAAITWSASRTYYADSVKGRFTISRDNAKNTVYLQMNSLKPEDTAVSYCAARRYRGYDYWGQGTQVTVSS,high polyreactivity
6,QVQLVESGGGLVQAGGSLRLSCAASGFIFNSYAMGWYRPAPGKERELVAVISWSGGTTYYADSVKGRFTISRDNAKNTVFLQMNSLKPEDTAVYYCAASSYRSQYGYWGQGTQVTVSS,high polyreactivity
7,QVQLVESGGGLVQAGGSLRLSCAASGFIFNSYGMGWYRQAPGKERELVAAITKSGGSTYYADSVKGRFTISRDNAKNTVYLQMNSLKPEDTAVYYCAARAYRYSVYRGDYWGQGTQVTVSS,high polyreactivity
8,QVQLVESGGGLVQAGGSLRLSCAASGFIFNWNTMGWYRQAPGKERELVATMTGSGGSTYADSVKGRFTISRDNAKNTVYLQMNSLKPEDTAVYYCAATRRSFHKYDYWGQGTQVTVSS,low polyreactivity
9,QVQLVESGGGLVQAGGSLRLSCAASGFIFNYNAMGWYRQAPGKERELVAAISGTGVRTYYADSVKGRFTISRDNAKNTVYLQMNSLKPEDTAVYYCNAYYGYIPVSGYRNDYWGQGTQVTVSS,low polyreactivity
10,QVQLVESGGGLVQAGGSLRLSCAASGFIFNYYAMGWYIQAPGKERELVAAISTNGGSTYYADSVKGRFTISRDNAKNTVYLQMNSLKPEDTAVYYCAARSYGVSGRYYRYTFGMDYWGQGTQVTVSS,high polyreactivity
11,QVQLVESGGGLVQAGGSLRLSCAASGFIFNYYAMGWYRQAPGKERELVAISRGGSTNYADSVKGRFTISRDNAKNTVYLQMNSLKPEDTAVYYCAATKRYASGMYYWGQGTQVTVSS,high polyreactivity
12,QVQLVESGGGLVQAGGSLRLSCAASGFIFPDNVMGWYRQAPGKERELVAAISRSGGSTYYADSVKGRFTISRDNAKNTVYLQMNSLKPEDTAVYYCAVKFVRYRQGIVLYDYWGQGTQVTVSS,high polyreactivity
13,QVQLVESGGGLVQAGGSLRLSCAASGFIFPEYAMGWYRQAPGKERELVAAINWSGGNTYYADSVKGRFTISRDNAKNTVYLQMNSLKPEDTAVYYCNVDDWVTDDDYWGQGTQVTVSS,low polyreactivity
14,QVQLVESGGGLVQAGGSLRLSCAASGFIFPFYAMGWYRQAPGKERELGASITWSGSTYADSVKGRFTISRDNAKNTVYLQMNSLKPEDTAVYYCNTDPRSVVGWYAYWGQGTQVTVSS,low polyreactivity
15,QVQLVESGGGLVQAGGSLRLSCAASGFIFPFYAMGWYRQAPGKERELVAGIRGVGSTNYADSVKGRFTISRDNAKNTVYLQMNSLKPEDTAVYYCNKELYDFKDRNLTAFLLRIFDSWGQGTQVTVSS,low polyreactivity
16,QVQLVESGGGLVQAGGSLRLSCAASGFIFPGNARGWYRQAPGKERELVAAISNSGSRTYYADSVKGRFTISRDNAKNTVYLQMNSLKPEDTAVYYCAALNYHKFAHKYDYWGQGTQVTVSS,low polyreactivity
17,QVQLVESGGGLVQAGGSLRLSCAASGFIFPGNTMGWYRQAPGKERELVAAITRSGASTYYADSVKGRFTISRDNAKNTVYLQMNSLKPEDTAVYYCAERYYYGLRYPDYYYWGQGTQVTVSS,high polyreactivity
18,QVQLVESGGGLVQAGGSLRLSCAASGFIFPGNVMGWYIQAPWKERELVAAISSGGGSTYYADSVKGRFTISRDNAKNSVYLQMNSLKPEDTAVYYCAKRTPRKWGQGTQVTVSS,high polyreactivity
19,QVQLVESGGGLVQAGGSLRLSCAASGFIFPGYAMGWYRQAPGKERELVAVISGSGARTYYADSVKGRFTISRDNAKNTVYLQMNSLKPEDTAVYYCATDYCRTRQYRPGDYWGQGTQVTVSS,high polyreactivity
20,QVQLVESGGGLVQAGGSLRLSCAASGFIFPKNAMGWYRQAPGKERELVAAISRSSGNTYYADSVKGRFTISRDNAKNTVYLQMNSLKPEDTAVYYCAASYWPYRGPVGGSKMYYWGQGTQVTVSS,high polyreactivity
21,QVQLVESGGGLVQAGGSLRLSCAASGFIFPNNAMGWYRQAPGKERELVARISYGGGDTHYADSVKGRFTISRDNAKNTVYLERNSLKPEDTAVYYCAVKDGQDDYWGQGTQVTVSS,low polyreactivity

# From the nanobody polyreactivity screen of Harvey et al. (2022)
